FireProtDB (doi:10.1006/jmbi.1995.0324)

B1: Subtilisin inhibitor, P01006 (parent)
chain: MRNTGAGPSPSVSRPPPSAAPLSGAALAAPGDAPSALYAPSALVLTVGKGVSATTAAPERAVTLTCAPGPSGTHPAAGSACADLAAVGGDLNALTRGEDVMCPMVYDPVLLTVDGVWQGKRVSYERVFSNECEMNAHGSSVFAF

Variants of: B1
Conditions: Streptomyces albogriseolus, Thermal, DSC, reversible: yes, structure 3SSI, whole UniProt chain shown; for ddG of mutation (higher = less stable) / unfolding free energy: 82.21 °C

Row | Variant | ddG of mutation (higher = less stable) (pH 7, phosphate 25 mM) [kcal/mol] | unfolding free energy (pH 7, phosphate 25 mM) [kcal/mol] | Tm (pH 7, phosphate 25 mM) [°C] | change of melting temperature, mutant - wild type (higher = more stable) (pH 7, phosphate 25 mM) [°C] | unfolding enthalpy (calorimetric) (pH 7, phosphate 25 mM) [kcal/mol] | ddG of mutation (higher = less stable) (pH 9.5, glycine 25 mM) [kcal/mol] | unfolding free energy (pH 9.5, glycine 25 mM) [kcal/mol] | Tm (pH 9.5, glycine 25 mM) [°C] | change of melting temperature, mutant - wild type (higher = more stable) (pH 9.5, glycine 25 mM) [°C] | unfolding enthalpy (calorimetric) (pH 9.5, glycine 25 mM) [kcal/mol]
1 | V44M | 5.92 | 0.11 | 69.6 | -12.6 | 181 | 5.43 | 0.61 | 69 | -11.7 | 176
2 | V44I | 0.84 | 5.19 | 79.8 | -2.4 | 182 | 0.94 | 5.1 | 78.9 | -1.83 | 178
3 | V44A | – | – | – | – | – | – | – | 67 | -13.7 | 190
4 | V44F | 5.69 | 0.34 | 69.1 | -13.5 | 168 | 5.33 | 0.71 | 68.3 | -12.4 | 164
5 | V44L | – | – | 77.7 | -4.5 | 175 | 2.52 | 3.52 | 75.4 | -5.3 | 170
6 | V44G | – | – | 54.5 | -27.7 | 162 | – | – | 55.3 | -25.4 | 158
